In patent publication US20180318438A1, “ANTIBODY DRUG CONJUGATES OF KINESIN SPINDEL PROTEIN (KSP) INHIBITORS WITH ANTI-TWEAKR-ANTIBODIES” (Bayer Pharma Aktiengesellschaft, priority 2015, published 2018):

T1: TWEAKR on human cells (NCI-H292, 786-O, A498, SK-HEP-1, HEK293) (human, UniProt Q9NP84 28-129)
T1 construct: also called TNFRSF12A; FN14
T1 sequence: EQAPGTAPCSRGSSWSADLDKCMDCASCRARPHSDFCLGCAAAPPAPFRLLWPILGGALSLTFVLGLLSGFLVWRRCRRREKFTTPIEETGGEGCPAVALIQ

T2: TPP-2305, hTNFRSF12 amino acids 28-80 (extracellular domain of TWEAKR) (human, UniProt Q9NP84 28-80)
T2 construct: Bought recombinant antigen (Fitzgerald 30R-AT080); also called TWEAKR extracellular domain; 30R-AT080 (Fitzgerald)
T2 sequence: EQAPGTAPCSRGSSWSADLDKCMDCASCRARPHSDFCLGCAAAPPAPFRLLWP


Key:
[1] = tested on: KPL4: human breast cancer cell line; experiment: Cytotoxicity, MTT assay; type: cell-based; settings: KPL4, 96 h, metabolites, KPL4 cells
Experimental: The cells were cultivated according to the standard method using the growth media listed under C-1. The test is carried out by detaching the cells with a solution of Accutase in PBS (Biochrom AG #L2143), pelleting, resuspending in culture medium, counting and sowing into a 96-well culture plate with white bottom (Costar #3610) (NCI H292: 2500 cells/well, KPL-4: 1200 cells/well, SK-HEP-1: 1500 cells/well in a total volume of 100 μl). The cells were then incubated in an incubator at 37° C. and 5% carbon dioxide. After 48 h, the medium was replaced. The metabolites in 10 μl of culture medium in concentrations from 10^−5M to 10^−13M were then pipetted to the cells (in triplicate), and the assay was then incubated in an incubator at 37° C. and 5% carbon dioxide. […] To this end, the MTT reagent was incubated with the cells for 4 h, followed by lysis of the cells overnight by addition of the detergent. The dye formed was detected at 570 nm (Infinite M1000 pro, Tec an). The measured data were used to calculate the IC50 of the growth inhibition using the DRC (dose response curve). The proliferation of cells which were not treated with test substance but were otherwise identically treated was defined as the 100% figure.

[2] = tested on: NCI-H292: human mucoepidermoid lung carcinoma cells; experiment: Cytotoxicity, MTT assay; type: cell-based; settings: NCI-H292, 96 h, metabolites
Caco-2 cells = experiment: Cell permeability, flux assay using Caco-2 cells; settings: basal to apical, 2 h
[3] = molecular target: T1, TWEAKR on human cells (NCI-H292, 786-O, …); experiment: flow cytometry on SK-HEP-1 cells, dose curve from 10 ug/ml in 1:5 steps, anti-kappa-FITC secondary
[4] = molecular target: T1, TWEAKR on human cells (NCI-H292, 786-O, …); experiment: flow cytometry on NCI-H292 cells, dose curve from 10 ug/ml in 1:5 steps, anti-kappa-FITC secondary
[5] = molecular target: T1, TWEAKR on human cells (NCI-H292, 786-O, …); experiment: cell-based or functional assay
[6] = molecular target: T2, TPP-2305, hTNFRSF12 amino acids 28-80 …; experiment: SPR (Biacore T200), antibody captured by anti-human Fc on CM5, TWEAKR extracellular domain 3.9-500 nM as analyte, 25 C; monovalent KD
[7] = molecular target: T2, TPP-2305, hTNFRSF12 amino acids 28-80 …; experiment: SPR (Biacore T200), antibody captured by anti-human Fc on CM5, TWEAKR extracellular domain 3.9-500 nM as analyte, 25 C

EC50 [3]	EC50 [4]	Agonistic activity [%] of the TWEAK-ind. agonism (NF-kappaB reporter gene assay, HEK293) [5]	Kd [6]	Molecule	also measured
–	–	–	–	CC(C)(C)[C@H](c1cc(-c2cc(F)ccc2F)cn1Cc1ccccc1)N(CC[C@H](N)C(=O)NCCNC(=O)CNC(=O)CC(SC[C@H](N)C(=O)O)C(=O)O)C(=O)CO (stereo partly drawn) [Example M13, 4-[(2-{[2-({(2S)-2-Amino-4-[{(1R)-1-[1-benzyl-4-(2,5-difluorophenyl)-1H-pyrrol-2-yl]-2,2-dimethylpropyl}(glycoloyl)amino]butanoyl}amino)ethyl]amino}-2-oxoethyl)amino]-2-{[(2R)-2-amino-2-carboxyethyl]sulphanyl}-4-oxobutanoic acid/trifluoroacetic acid (1:1)]	IC50 [1]: 169 nM; IC50 [2]: 152 nM
–	–	–	–	CC(C)(C)[C@H](c1cc(-c2cc(F)ccc2F)cn1Cc1ccccc1)N(CC[C@H](N)C(=O)N[C@H](CCC(=O)O)C(=O)O)C(=O)CO.O=C(O)C(F)(F)F [Example M25, N-{(2S)-2-Amino-4-[{(1R)-1-[1-benzyl-4-(2,5-difluorophenyl)-1H-pyrrol-2-yl]-2,2-dimethylpropyl}(glycoloyl)amino]butanoyl}-L-glutamic acid/trifluoroacetic acid (1:1)]	Papp (B-A) (Caco-2 cells): 0.81 ×10⁻⁶ cm/s
–	–	–	–	CC(C)(C)[C@H](c1cc(-c2cc(F)ccc2F)cn1Cc1ccccc1)N(CC[C@H](N)C(=O)NCCNC(=O)CNC(=O)CC(SC[C@H](N)C(=O)O)C(=O)O)C(=O)CO.O=C(O)C(F)(F)F (stereo partly drawn) [Example M26, 4-[(2-{[2-({(2S)-2-Amino-4-[{(1R)-1-[1-benzyl-4-(2,5-difluorophenyl)-1H-pyrrol-2-yl]-2,2-dimethylpropyl}(glycoloyl)amino]butanoyl}amino)ethyl]amino}-2-oxoethyl)amino]-2-{[(2R)-2-amino-2-carboxyethyl]sulphanyl}-4-oxobutanoic acid/trifluoro acetic acid (1:1)]	Papp (B-A) (Caco-2 cells): 1.3 ×10⁻⁶ cm/s
0.9 nM	0.8 nM	4%	1.4 nM	TPP-7007 (antibody, human IgG1, kappa, V domains shown, also called anti-TWEAKR AK1D; AK1D) VH: QVQLVQSGAEVKKPGASVKVSCKASGYTFTDFIIAWVKQAPGQGLEWIGEIYPGTGRTYYSEKFRGKATLTADTSTSTAYMELSSLRSEDTAVYFCARRTIYYDYDGDYWGQGTLVTVSS VL: DIVMTQSPLSLPVTPGEPASISCRSSKSLLHSNGITYLYWYLQKPGQSPQLLIYQMSNLASGVPDRFSGSGSGTDFTLKISRVEAEDVGVYYCAHNLELPWTFGQGTKVEIKR	–
0.54 nM	0.5 nM	0.1%	0.26 nM	TPP-7005 (antibody, human IgG1, kappa, V domains shown, also called anti-TWEAKR AK1B; AK1B) VH: QVQLVQSGAEVKKPGASVKISCKVSGYTFTDFIIAWVKQAPGKGLEWIGEIYPGTGRTYYSEKFRGKATLTADKSTSTAYMELSSLRSEDTAVYYCARRTIYYDYDGDYWGQGTTVTVSS VL: DIVMTQSPLSLPVTPGEPASISCRSSKSLLHSNGITYLYWYLQKPGQSPQLLIYQMSNLASGVPDRFSSSGSGTDFTLKISRVEAEDVGVYYCAHNLELPWTFGGGTKVEIKR	koff [7]: 0.0018 s⁻¹; kon [7]: 6.8e+06 M⁻¹ s⁻¹; Antagonistic activity IC50 [M] (NF-kappaB reporter gene assay in the presence of Tweak 200 ng/ml) [5]: 2e-11 M
–	8.9 nM	15%	6 nM	TPP-7075 (antibody, human IgG1, kappa, V domains shown) VH: QVQLVQSGAEVKKPGASVKVSCKASGYTFTDFIIAWVKQAPGQGLEWIGEIYPGTGRTYYSEKFRGKATLTADTSTSTAYMELSSLRSEDTAVYFCARRTIYYDYDGDYWGQGTLVTVSS VL: DIVMTQSPLSLPVTPGEPASISCRSSKSLLHSSGITYLYWYLQKPGQSPQLLIYQMSNLASGVPDRFSGSGSGTDFTLKISRVEAEDVGVYYCAHNLELPWTFGQGTKVEIKR	Antagonistic activity IC50 [M] (NF-kappaB reporter gene assay in the presence of Tweak 200 ng/ml) [5]: 2.4e-08 M
–	–	14%	0.7 nM	ITEM-4 (antibody, V domains shown, Murine IgG2b, bought (eBioscience 13-9018); also called anti-TWEAKR AK1A; AK1A) VH: QVQLQQSGPELVKPGASVKMSCKASGYTFTDFIIAWVKQRTGQGLEWIGEIYPGTGRTYYSEKFRGKATLTADKSSNTAYMQLSSLTSVDSAVYFCARRTIYYDYDGDYWGQGTTLTVSS VL: DIVMTQAAFSNPVTLGTSASISCRSSKSLLHSNGITYLYWYLQKPGQSPQLLIYQMSNLASGVPDRFSSSGSGTDFTLRISRVEAEDVGVYYCAHNLELPWTFGGGTKLELK	–
0.83 nM	0.54 nM	3%	0.33 nM	TPP-7006 (antibody, human IgG1, kappa, V domains shown, also called anti-TWEAKR AK1C; AK1C) VH: QVQLQQSGPELVKPGASVKMSCKASGYTFTDFIIAWVKQRTGQGLEWIGEIYPGTGRTYYSEKFRGKATLTADKSSNTAYMQLSSLTSVDSAVYFCARRTIYYDYDGDYWGQGTTLTVSS VL: DIVMTQAAFSNPVTLGTSASISCRSSKSLLHSNGITYLYWYLQKPGQSPQLLIYQMSNLASGVPDRFSSSGSGTDFTLRISRVEAEDVGVYYCAHNLELPWTFGGGTKLELKR	–
